Patent US20230203107A1, “PEPTIDE FOR TREATING SEPSIS DERIVED FROM RV3364C PROTEIN OF MYCOBACTERIUM TUBERCULOSIS” (priority 2021, published 2023)

Key:
[1] = target: T1, EGFLAM (EGF-like Fibronectin type III and Laminin G domains) (Homo sapiens, UniProt Q63HQ2); assay: HuProt human proteome microarray, binding of rRv3364c; conditions: cell-free protein microarray, signal at 532 nm
T1 construct: containing 20,000 or more full-length recombinant human proteins; purchased CDI Labs, USA (HuProt Human Proteome Microarray)
T1 sequence (Q63HQ2 25-1017): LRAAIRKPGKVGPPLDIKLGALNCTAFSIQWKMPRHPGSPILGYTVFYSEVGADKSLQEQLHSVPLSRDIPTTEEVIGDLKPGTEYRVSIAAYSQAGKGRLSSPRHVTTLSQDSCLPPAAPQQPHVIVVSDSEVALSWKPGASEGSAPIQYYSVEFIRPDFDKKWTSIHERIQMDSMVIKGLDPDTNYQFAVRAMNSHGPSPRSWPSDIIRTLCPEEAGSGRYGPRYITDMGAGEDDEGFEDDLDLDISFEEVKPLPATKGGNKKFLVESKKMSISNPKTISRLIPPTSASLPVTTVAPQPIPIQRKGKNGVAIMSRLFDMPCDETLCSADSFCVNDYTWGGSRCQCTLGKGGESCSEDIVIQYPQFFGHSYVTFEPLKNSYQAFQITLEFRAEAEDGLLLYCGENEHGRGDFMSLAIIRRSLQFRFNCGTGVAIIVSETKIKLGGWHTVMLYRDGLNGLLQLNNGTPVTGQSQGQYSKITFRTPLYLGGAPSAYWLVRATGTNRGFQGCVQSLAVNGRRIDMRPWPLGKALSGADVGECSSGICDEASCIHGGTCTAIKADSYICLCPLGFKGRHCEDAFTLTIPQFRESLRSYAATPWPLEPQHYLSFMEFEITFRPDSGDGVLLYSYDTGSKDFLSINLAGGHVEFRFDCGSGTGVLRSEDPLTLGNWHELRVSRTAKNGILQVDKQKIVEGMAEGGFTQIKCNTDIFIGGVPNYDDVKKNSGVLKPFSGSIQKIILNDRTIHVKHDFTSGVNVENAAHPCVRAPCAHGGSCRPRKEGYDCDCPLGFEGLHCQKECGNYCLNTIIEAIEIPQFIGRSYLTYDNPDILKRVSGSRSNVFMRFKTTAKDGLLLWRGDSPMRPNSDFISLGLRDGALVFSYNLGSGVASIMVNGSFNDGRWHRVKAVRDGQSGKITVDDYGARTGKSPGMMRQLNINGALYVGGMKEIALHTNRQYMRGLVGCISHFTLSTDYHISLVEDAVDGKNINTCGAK
Description: (§1) FIGS. 1A and 1B illustrate results of screening candidate proteins predicted to potentially interact with rRv3364c in a CDI HuProt™ Human Proteome Microarray. Each figure illustrates a section of a protein array showing a positive response. A signal at 532 nm was stronger in an rRv3364c group than in a control group;
(§2) In order to identify a protein binding to rRv3364c, human protein microarrays (CDI Labs, USA) containing 20,000 or more full-length recombinant human proteins were used. Specifically, the protein microarrays were treated with a blocking buffer (2% BSA in PBS, 0.1% […]) for 2 hours. 3 μg of […] on the microarrays at 4° C. for 8 hours. Thereafter, each array was treated with 1 μg of streptavidin fluorescence Alexa Fluor 532 nm at 4° C. for 1 hour. Microarray results were detected using a GenePix 4100A microarray laser scanner (Molecular Devices, USA).
(§3) A customized protein binding assay was used to identify interacting proteins, and candidate proteins capable of potentially interacting with rRv3364c were selected. […] In FIG. 1A, an affinity score (A score) is a normalized signal intensity of two overlapping points, and a specificity score (B score) is a difference between the affinity score of the protein and the protein ranked next thereto.

[2] = target: T2, SNX9 (sorting nexin 9) (Homo sapiens, UniProt Q9Y5X1); assay: as above; conditions: cell-free protein microarray, signal at 532 nm
T2 construct: containing 20,000 or more full-length recombinant human proteins; purchased CDI Labs, USA (HuProt Human Proteome Microarray)
Description: as §1, §2, §3

[3] = target: T3, YEATS4 (YEATS domain-containing protein 4) (Homo sapiens, UniProt O95619); assay: as above; conditions: cell-free protein microarray, signal at 532 nm
T3 construct: containing 20,000 or more full-length recombinant human proteins; purchased CDI Labs, USA (HuProt Human Proteome Microarray)
Description: as §1, §2, §3

[4] = target: T4, ZBTB46 (zinc finger and BTB domain-containing 46) (Homo sapiens, UniProt Q86UZ6); assay: as above; conditions: cell-free protein microarray, signal at 532 nm
T4 construct: containing 20,000 or more full-length recombinant human proteins; purchased CDI Labs, USA (HuProt Human Proteome Microarray)
T4 sequence (Q86UZ6 1-589): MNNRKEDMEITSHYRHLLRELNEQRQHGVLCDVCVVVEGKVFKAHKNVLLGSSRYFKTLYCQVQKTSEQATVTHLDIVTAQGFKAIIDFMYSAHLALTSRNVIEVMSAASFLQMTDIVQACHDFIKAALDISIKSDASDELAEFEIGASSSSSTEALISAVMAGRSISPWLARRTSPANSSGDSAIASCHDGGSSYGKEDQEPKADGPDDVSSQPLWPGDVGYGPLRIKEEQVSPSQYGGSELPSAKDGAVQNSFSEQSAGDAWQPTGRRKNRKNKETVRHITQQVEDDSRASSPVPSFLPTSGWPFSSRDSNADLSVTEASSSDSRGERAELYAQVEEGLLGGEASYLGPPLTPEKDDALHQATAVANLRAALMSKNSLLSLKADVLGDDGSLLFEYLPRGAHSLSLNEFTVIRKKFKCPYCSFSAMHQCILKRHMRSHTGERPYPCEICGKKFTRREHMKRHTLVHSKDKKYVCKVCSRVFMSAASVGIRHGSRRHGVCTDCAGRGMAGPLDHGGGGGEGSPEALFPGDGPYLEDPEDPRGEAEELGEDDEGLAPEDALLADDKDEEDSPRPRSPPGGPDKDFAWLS
Description: as §1, §2, §3

[5] = target: T5, SNX9 (Mus musculus, UniProt Q91VH2); assay: Co-immunoprecipitation, cell fractionation and immunostaining in macrophages and HEK293T cells; assay type: cell-based; conditions: cell fractionation (Raw264.7) and immunostaining (BMDM), 1 μg/ml rRv3364c, time course
T5 construct: harvesting BMDM cells with different treatment times of 1 μg/ml rRv3364c, performing immunoprecipitation (IP) with αHis; endogenous in cells; host or cells: mouse BMDM, Raw264.7

[6] = system: SNX9; assay: as above; assay type: cell-based; conditions: macrophages and HEK293T cells, 1 μg/ml rRv3364c, 15 to 30 min
[7] = target: T6, YEATS4 (Mus musculus, UniProt Q9CR11); assay: as above; assay type: cell-based; conditions: cell fractionation (Raw264.7) and immunostaining (BMDM), 1 μg/ml rRv3364c, time course
T6 construct: harvesting BMDM cells with different treatment times of 1 μg/ml rRv3364c, performing immunoprecipitation (IP) with αHis; endogenous in cells; host or cells: mouse BMDM, Raw264.7

[8] = system: YEATS4; assay: as above; assay type: cell-based; conditions: macrophages and HEK293T cells, 1 μg/ml rRv3364c, 15 to 30 min
[9] = system: macrophages (BMDM); assay type: cell-based, mouse; conditions: 1 μg/ml, 18 hours, ELISA
[10] = system: macrophages
[11] = target: T7, cathepsin G (Homo sapiens, UniProt P08311); conditions: membrane protein of macrophages; cited from earlier work
T7 sequence (P08311 21-244): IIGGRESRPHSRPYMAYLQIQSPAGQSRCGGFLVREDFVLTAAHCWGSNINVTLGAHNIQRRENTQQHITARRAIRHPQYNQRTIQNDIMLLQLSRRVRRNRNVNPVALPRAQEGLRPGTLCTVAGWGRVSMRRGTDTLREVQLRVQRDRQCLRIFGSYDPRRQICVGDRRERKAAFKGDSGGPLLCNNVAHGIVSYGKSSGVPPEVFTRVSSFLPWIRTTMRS

T5 sequence (Q91VH2 whole entry): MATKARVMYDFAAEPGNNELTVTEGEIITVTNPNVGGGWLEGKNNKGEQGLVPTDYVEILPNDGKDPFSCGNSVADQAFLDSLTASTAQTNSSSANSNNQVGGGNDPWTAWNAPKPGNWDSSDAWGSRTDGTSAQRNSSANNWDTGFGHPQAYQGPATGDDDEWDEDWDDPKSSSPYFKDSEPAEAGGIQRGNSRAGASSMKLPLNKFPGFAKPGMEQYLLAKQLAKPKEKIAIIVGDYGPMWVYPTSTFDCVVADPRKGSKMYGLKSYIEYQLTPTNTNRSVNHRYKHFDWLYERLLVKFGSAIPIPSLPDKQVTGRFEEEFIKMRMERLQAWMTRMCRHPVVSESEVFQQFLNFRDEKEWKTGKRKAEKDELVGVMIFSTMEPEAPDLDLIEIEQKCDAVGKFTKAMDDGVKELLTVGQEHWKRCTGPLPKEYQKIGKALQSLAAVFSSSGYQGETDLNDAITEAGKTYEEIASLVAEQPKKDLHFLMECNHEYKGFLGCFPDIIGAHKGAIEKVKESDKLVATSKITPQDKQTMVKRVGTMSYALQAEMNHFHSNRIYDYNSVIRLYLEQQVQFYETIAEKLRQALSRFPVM
T3 sequence (O95619 whole entry, the tested form may be a part): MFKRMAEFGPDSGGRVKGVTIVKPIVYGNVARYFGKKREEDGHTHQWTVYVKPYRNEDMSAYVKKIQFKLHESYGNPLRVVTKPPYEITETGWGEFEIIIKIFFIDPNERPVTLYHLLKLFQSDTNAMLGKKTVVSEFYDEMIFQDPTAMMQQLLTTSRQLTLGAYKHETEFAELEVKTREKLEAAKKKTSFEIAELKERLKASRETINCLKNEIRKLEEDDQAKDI
T6 sequence (Q9CR11 whole entry): as the sequence (O95619 whole entry, the tested form may be a part) above, with A224T counted along it
T2 sequence (Q9Y5X1 whole entry): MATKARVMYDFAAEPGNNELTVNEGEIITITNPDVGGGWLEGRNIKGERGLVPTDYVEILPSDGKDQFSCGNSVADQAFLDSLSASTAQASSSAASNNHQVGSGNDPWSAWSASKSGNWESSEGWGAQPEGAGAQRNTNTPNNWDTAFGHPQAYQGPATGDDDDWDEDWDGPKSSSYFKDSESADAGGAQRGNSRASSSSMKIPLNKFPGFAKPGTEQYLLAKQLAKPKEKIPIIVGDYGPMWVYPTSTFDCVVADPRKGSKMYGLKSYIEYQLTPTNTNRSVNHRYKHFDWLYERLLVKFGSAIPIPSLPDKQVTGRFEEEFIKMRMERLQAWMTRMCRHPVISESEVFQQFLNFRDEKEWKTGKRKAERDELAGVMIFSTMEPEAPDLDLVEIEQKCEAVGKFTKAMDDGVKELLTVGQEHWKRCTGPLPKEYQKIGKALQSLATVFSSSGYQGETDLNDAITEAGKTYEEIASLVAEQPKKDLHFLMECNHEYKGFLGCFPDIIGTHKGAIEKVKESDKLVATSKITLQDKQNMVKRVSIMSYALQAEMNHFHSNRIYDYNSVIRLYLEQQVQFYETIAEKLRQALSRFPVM

For “rRv3364c: recombinant Rv3364c protein of MTB H37Rv with N-terminal 6xHis tag, expressed in E. coli, 13 kDa”, the “affinity with rRv3364c” value [1] was “high affinity”, the “affinity with rRv3364c” value [2] was “high affinity” and the “affinity with rRv3364c” value [3] was “high affinity”. For the same substance, the “affinity with rRv3364c” value [4] was “high affinity”, the “intracellular position of binding to SNX9” value [5] was “initially bound to SNC9 in the cytoplasm” and the “interaction with endogenous and extrinsic SNX9 (co-immunoprecipitation)” value [6] was “strongly interacted”. The “intracellular position of binding to YEATS4” value [7] was “migrated to the nucleus to bind to YEATS4”, the “interaction with endogenous and extrinsic YEATS4 (co-immunoprecipitation)” value [8] was “strongly interacted” and the “production of pro-inflammatory cytokines (TNF-α, IL-6, and IL-12p40) and anti-inflammatory cytokines (IL-10)” value ([9]; BMDM, through TLR4/MyD88/TRAF6/TBK1-IRAK1 pathway) was “promoted the production”. For the same substance, the “production of rRv3364c-induced inflammatory cytokines in SNX9−/− compared to SNX9+/+ macrophages” value ([9]; SNX9−/− BMDM) was “significantly reduced”, the rRv3364c-induced cytotoxicity [10] was “not observed” and the “enzymatic activity of cathepsin G” value [11] was “inhibit its enzymatic activity”.
